These results are taken from patent US20220185889.

The target in the data set is CTLA-4 Ig functionalized with GzmB substrate (UniProt P16410).
Sequence of CTLA-4 Ig functionalized with GzmB substrate (P16410 38-161): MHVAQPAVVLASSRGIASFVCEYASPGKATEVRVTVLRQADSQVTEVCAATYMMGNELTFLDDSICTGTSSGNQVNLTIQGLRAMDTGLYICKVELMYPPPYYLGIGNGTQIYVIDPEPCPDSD

Sequence of matrix metalloproteinase 2 (P08253 110-660): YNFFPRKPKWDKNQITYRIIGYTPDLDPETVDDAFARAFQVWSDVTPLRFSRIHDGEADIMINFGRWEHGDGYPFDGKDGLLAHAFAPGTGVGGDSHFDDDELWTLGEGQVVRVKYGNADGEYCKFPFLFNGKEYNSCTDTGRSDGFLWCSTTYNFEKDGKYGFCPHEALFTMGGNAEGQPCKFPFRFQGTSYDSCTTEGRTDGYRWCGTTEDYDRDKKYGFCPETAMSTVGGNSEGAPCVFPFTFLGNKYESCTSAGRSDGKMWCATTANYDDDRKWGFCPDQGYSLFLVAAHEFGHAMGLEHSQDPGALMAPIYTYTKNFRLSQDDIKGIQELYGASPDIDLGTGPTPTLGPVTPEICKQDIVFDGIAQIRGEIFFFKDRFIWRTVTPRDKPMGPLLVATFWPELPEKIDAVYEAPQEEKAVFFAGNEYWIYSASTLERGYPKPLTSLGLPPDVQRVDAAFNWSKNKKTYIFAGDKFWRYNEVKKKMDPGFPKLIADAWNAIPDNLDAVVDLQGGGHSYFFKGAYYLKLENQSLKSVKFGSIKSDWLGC
Sequence of mannose-associated serine protease 1 (P48740 20-699): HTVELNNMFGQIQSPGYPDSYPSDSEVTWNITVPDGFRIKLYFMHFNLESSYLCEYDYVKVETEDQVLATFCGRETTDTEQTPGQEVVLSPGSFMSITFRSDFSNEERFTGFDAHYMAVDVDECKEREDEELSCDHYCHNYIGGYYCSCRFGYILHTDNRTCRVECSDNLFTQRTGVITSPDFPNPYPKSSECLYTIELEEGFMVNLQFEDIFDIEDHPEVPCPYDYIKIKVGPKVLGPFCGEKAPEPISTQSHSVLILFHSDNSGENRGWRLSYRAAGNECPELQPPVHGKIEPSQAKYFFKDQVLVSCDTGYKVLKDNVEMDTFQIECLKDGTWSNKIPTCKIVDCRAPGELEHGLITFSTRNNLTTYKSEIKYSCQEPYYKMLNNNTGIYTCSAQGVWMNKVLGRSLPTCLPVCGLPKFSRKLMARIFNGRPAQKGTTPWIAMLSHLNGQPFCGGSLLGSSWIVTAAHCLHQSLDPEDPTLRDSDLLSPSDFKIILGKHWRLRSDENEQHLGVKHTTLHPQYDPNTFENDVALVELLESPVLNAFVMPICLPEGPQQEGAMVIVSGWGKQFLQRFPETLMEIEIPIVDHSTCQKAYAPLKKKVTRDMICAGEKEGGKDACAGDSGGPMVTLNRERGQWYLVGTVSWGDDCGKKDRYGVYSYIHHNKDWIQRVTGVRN

For mannose-associated serine protease 1, the “in vitro cleavage assay” value is “no cross-cleavage by matrix, complement, or immune proteases”.
matrix metalloproteinase 9: the “in vitro cleavage assay” value was “no cross-cleavage by matrix, complement, or immune proteases”.
In the case of granzyme B, the “in vitro cleavage assay” value was “modified CTLA-4 Ig demonstrated specific cleavage by GzmB”.
Next, matrix metalloproteinase 2: “no cross-cleavage by matrix, complement, or immune proteases”; matrix metalloproteinase 15: “no cross-cleavage by matrix, complement, or immune proteases”.
Next, Cathepsin B: “no cross-cleavage by matrix, complement, or immune proteases”.
